From US20180179292

Tests used:
[1] = biological target: wild-type RKIP, cardiac transgene (RKIP-tg)
[2] = biological target: RKIP^S153A, cardiac transgene

B1: G protein-coupled receptor kinase (GRK) in mouse heart lysates (protein)
chain: MADLEAVLADVSYLMAMEKSKATPAARASKKILLPEPSIRSVMQKYLEDRGEVTFEKIFSQKLGYLLFRDFCLNHLEEAKPLVEFYEEIKKYEKLETEEERVVRSREIFDSYIMKELLACSHPFSKNATEHVQGHLVKKQVPPDLFQPYIEEICQNLRGDVFQKFIESDKFTRFCQWKNVELNIHLTMNDFSVHRIIGRGGFGEVYGCRKADTGKMYAMKCLDKKRIKMKQGETLALNERIMLSLVSTGDCPFIVCMSYAFHTPDKLSFILDLMNGGDLHYHLSQHGVFSEADMRFYAAEIILGLEHMHNRFVVYRDLKPANILLDEHGHVRISDLGLACDFSKKRPHASVGTHGYMAPEVLQKGVAYDSSADWFSLGCMLFKLLRGHSPFRQHKTKDKHEIDRMTLTMAVELPDSFSPELRSLLEGLLQRDVNRRLGCLGRGAQEVKESPFFRSLDWQMVFLQKYPPPLIPPRGEVNAADAFDIGSFDEEDTKGIKLLDSDQELYRNFPLTISERWQQEVAETVFDTINAETDRLEARKKAKNKQLGHEEDYALGKDCIVHGYMSKMGNPFLTQWQRRYFYLFPNRLEWRGEGEAPQSLLTMEEIQSVEETQIKERKCLLLKIRGGKQFVLQCDSDPELVQWKKELRDAYREAQQLVQRVPKMKNKPRSPVVELSKVPLIQRGSANGL
For B1, the “GRK activity (in vitro rhodopsin phosphorylation with heart lysates; immunoblot of β2AR phosphorylation)” value [1] was “GRK activity was significantly reduced in mouse hearts of RKIP-tg” and the “GRK activity (in vitro rhodopsin phosphorylation with heart lysates; immunoblot of β2AR phosphorylation)” value [2] was “GRK activity was significantly reduced in mouse hearts of RKIP-tg but not of RKIP^S153A mice”.
